Assay: yeast display, Sf9 membrane polyspecificity reagent, FACS + sequencing; frameworks hold sequencing errors
How it was run: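 Using colony PCR, genes from sorted yeast display clones were amplified, then sequenced on MiSeq at 2 × 250 and filtered by CDR length. The clones had been stained with 10% biotinylated, detergent-solubilized Sf9 membrane reagent for 1 hour at 4 °C and sorted by FACS into low and high (top ~1%) gates on anti-HA and streptavidin fluorescence. Polyreactivity labels come from the gate of origin.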

Row | Sequence | polyreactivity (PSR sort gate)
1 | HVQLVESGGGLVQAGGSLRLSCAASGSIFESNAMGWYRQAPGKERELVAAYADSVKGRFTISRDNAKNTVYVQMNSLKPEETAVYYCAARIGTGVLPGRGANSHMDYWGQGTQVTVSS | low polyreactivity
2 | QVQLVESGGGLVQAGGSLRLSCAASGFTLRAYAMGWYRQAPGKERELVAAISSGGSTYADSVKGRFTISRDNAKNTVYLQMNSLKPEDTAVYYCAADGSKLFYSKFRYVQYGYWGQGTQVTVSS | high polyreactivity
3 | QVQLVESGGGLVQAGGSLRLSCAASGRIFPHYAIGWYRQAPGKERELVAAISTSGGSTYYADSVKGRFTISRDIAKNTVYLQLNCLKPEDTEVYYCAARGYQYGFYYLVIYDYWGQGTQVTVSS | low polyreactivity
4 | QVQLVESVGGLVQAGGSLRLSCAASGRTFGRYAMGWYRKAPGKERELVAAINRGGSTKYADSVKGRFTISRDNAKNTVYFQMNSLKPEDTAVDYCAKDRHPALHYDYWGQGTQVTVSS | low polyreactivity
5 | QVQLVESGGGLVQAGGSLRLSCAASGRTFVYNAMGWYRQAPGKEREFVAAISDGGGDTYYADSVKGRFTISRDNAKNTVYLQMNSLKPEDTAVYYCNVEWQQPGYAFDYWGQGTQVTVSS | low polyreactivity
6 | QVQLQESGGGLVQAGGSLRLTCAASGSIYDDTYMGCYRQAPGKERELVATIDSGSTTNYADSVKGRITIRRDNAKNTVYLQMNSLKPEDTAVYFCGAADSHIDYFDYWGQGTQVTVSS | low polyreactivity
7 | QVQLVESGGGLVQAGGSLRLSCAATGRTFRPYAMGWYTQAPGKEREMVDAIDSSGTSTYYADSVKGRFTISRDNAKKTVYLQMNSQKPEDTAVYYCAKAWPDHWYSRYDYWGQGTQVTVSS | low polyreactivity
8 | QVQLVESGGGIVQAGGSLRLSCAASGSTFVIYTMGWYRPAPGKERELVAAISWSGGITRYADSVKGRFTISRDNAKNTVYLQMNSLKPEDSAVYYCNASQWPSRFDYWGQGTQVTVSS | low polyreactivity
9 | LQLVESGGGLVQAGGSLRLTSAASGSTFHRYAMGWYRQSPGKERELVAAISSRGGSTYYADSVKGRFTISRDNAKYTVYLQMNSLKPEDTAVYYCAVYGGRSGVPFDSMDYWGQGTQVTVTS | high polyreactivity
10 | QVQLVESGGGLVQAGGSLRLSCAASGFTFGGYAMGWYRQAPGKESEFVAAITGTGGNTFYADSVKGRFTISRDNAKNTVYLQMNSLKPEDTAVYYCAKTWYPWSRYGYYRRYDSWGQGTQVTVSS | low polyreactivity
11 | QVQLVESGGGLVQAGGSLRLSCAASGRTFGTYAMGWYRQAPGKDRELVAAISRRGGTTYYADSVKGRFTISRDNAKNTVYLQMNSLKPEDTAVYYCARASWSITTVLSTMDYWGQGTQVTVSS | high polyreactivity
12 | QFHLVESGGGLVHAGGSLRLSCAASGNIFPPNTMGWYRQAPGKATELVAVITWSDGGTYADSVKGRFTISRDNAKKTVYLQMNSLKPEDTAVYYCNADYYFAAPKGEYTAWYDYWGKGTQVTVSS | low polyreactivity
13 | QVQLVESGGGLVQAGGSLRLSCAASGRIFGSYAMGWYRQAPGKERELVAGIRSVGSTYYADSVKGRFTISRDNAKNTVYFQMNSLKPEDTAVYYCAAEYFNQNTRQGYDSWGQGSQVTVSS | low polyreactivity
14 | QVQLVESGGGLVQAGASLRLSCAASGRTYRWYTMGWYRPAPGKERELVAAITSRGGSTYADSVKGRFTISRDNAKNTVYLQMNSLKPEDTAVYYCNAARTYQYDYWGQGTQVTVSS | high polyreactivity
15 | QVQLVESGGGLVQAGGSLRLSCAASGSIFPFYAMGWYRQAPGKERELVAAITRSDGSTYYADSVKGRFTISRDNAKNTVYLQMNSLKPEDTAVYYCADYGYWGQGTQVTVSS | low polyreactivity
16 | QVQLVESGGGLVQAGGSLRLSCAASGFIFTYYAMGWFRQAPGKERELVAVISWSGGTTYYADSVKGRFTISRDNAKNTVYLQMNSLKPEDTAVFYCNARSLAKLPRSSVRVEYDYWGQGTQVTLSS | low polyreactivity
17 | QVQLVESGGGLVQAGGSLSLSCAASGSIFLRNAMGWYRQAPGKERELVAAITWDSGDTYYADSVKGRFTISRDHAKNTVYLQMNSLKPEDTAVYYCNTLGLSSDWGQGTQVTVSS | low polyreactivity
18 | QVQLVESGGGLVQAGGSLRLSCAASGSIFGYNVMGWYRQAPGKERELVATISSSGGTNYADSVKGRFTISRDNAKNTVYLQMNSLKPEDTAVYYCNADVLDGGYDYWGQGTQVTVSS | low polyreactivity
19 | QVQLVESGGGLVQAGGSLRLSCAASGRIFSSYVMGWYRQAPGKERELVAAIRWSGGSTYYADSVKGRFTISRDNAKNTVYLQMNSLKPEDTAVYYCAARHVLYGYYLYDYWGQGTQVTVSS | high polyreactivity
20 | QVQLVESGGGLVQAGGSLRLSCAASGSISVWYVMGWYRQAPGKERELVAAITRSGGSTFYADSVKGRLTISRDNAKNTVYLQMNSLKPEDTAVYYCAADVGVAWGYGYWGQGTQVTVSS | low polyreactivity
21 | QVQLVESGGGLVQAGGSLRLSCAASGSTFIIYAMGWYRQAPGKERELVAAISWSGGSTYYADSVKGRFTISRDNAKNTVYLQMNSLKPEDTAVYYCAVVYRTRWSDYDYWGQGTQVTVSS | high polyreactivity
22 | QVQLVESGGGLVQAGGSLRLSCAASGFIFDTYAMGWYRQAPGKERELVAAISWTGTDTYYADSVKGRFTISRDNAKNTVYLQMNSLKPEDTAVYYCATDYGWLYINSIWEYDYWGQGTQVTVSS | high polyreactivity

Row | Sequence | polyreactivity (PSR sort gate)
23 | QVQLVESGGGLVQAGGSLRLSSAASGSTFWYYAMGWYRQAPGTERELVAGITQSGGSTYYADSVKGRFTISRDNAKNTVYLQMNSLKPEDTAVYYCAKDGRVSGDFDYWGQGTQVTVSS | low polyreactivity
24 | QDQLVQSGGGLVQAGGSLRLSCDASGGMFDSNAMGRYRQPPGKERELVAAISDSGGSTYYADSVKGRFTISRDNAKNTVYLQMNSLKPEDTAVYYCAGDSDYHFVNYRFGMDYWGQGTQVTVSS | low polyreactivity
25 | QVQLVESGGGIVQAGGSLRLSCAASGRIFYRYDMGWYSQARGKERELVAAINDGGSTYYADSVKGRFTISRDNAKNTVYLQMNSLKPEDTAVYYCKVVNEHQSDFVVPFDYNHWGQGTQVTVSS | low polyreactivity
26 | QVQLVESGGGLVQAGGSLRLSCAASGLTFYQYAMGWYRQAPGKERELVAAISQSAGSTYYADSVKGRFTISRDNAKNTVYLQMNSLKPEDTAVYYCAARVLRLRYDYWGQGTQVTVSS | high polyreactivity
27 | QVQLVESGGGLVQAGGSLRLSCAASGFIFTDNAMGRYRHAPRTERELVAAINLSGTRTYYADSVKGRFTISRDNAKNTVYLQMNSLKPEDTAVYYCNKSEDYTYDYWGQGTQVTVSS | low polyreactivity
28 | QVQLVESGGGLVQAGGSLRLSSAASGLTFSDYAMAWYRQAPGKERELVAGISSGGSTYYADSVKGRFTISRDNAKNTVYLQMNSLKPEDTAVYYCAATRYNRWPIKFDYWVQGTQVTVSS | high polyreactivity
29 | QVQLVESGGGLVQAGGSLRLSCAASGSTFSGYAMGWYRQAPGKERELVAAISRRGTSTYYADSVKGRFTISRDNAKNTVYLQMNSLKPEDTAVYYCAARPSGYVIGGYGYWGQGTQVTVSS | high polyreactivity
30 | QVQLVESGGGLVQAGGSLRVSCASSGSIFLDNAMEWYRQAPGKERELVAAISYGDGSTYYADSVKGRITISRDNAKNTVYLQMNRLKPEDTAVYYCAAERYTIPPIYDYWGQGTQVTVSS | low polyreactivity
31 | QVQLVESGGGLVQAGGSLRLSCAASGSTFGGYAMGWYRQAPGKERELVAAISQSGTRSYYADSVKGRFTISRDNAKNTVYLQMNSLKPEDTAVYYCAAEKRFRKYDYWGQGTQVTVSS | high polyreactivity
32 | QVQLVESAGGLVQAGGSLSLSCDASGNTFLGYAMGWYRQAPGKERELVAAISKRGGSTYYADSVKGRFTISRDNAKNTVYLQMNSLQPEDTAVYYCNAVPPRDNGSWGQGTQVTVSS | high polyreactivity
33 | QVQLVESGGGLVQAGGSLLLSCAASGSIFGGNAMGWSRQAPGKVRELVAAITSSGGSTYYADSVKGRFTISRDNAKNTVYLQMNSLKPEDTAVYYCNKLSWRKYLGYEYWGQGTQVTVSS | high polyreactivity
34 | QVQLLESVGGLVQAGGSLRLSCDASGYTYCGYAMGSYRQAPGKERELVAAISRSGGSTYYADTVKGRFTISRDHAKNTVYLQMNSLKPEDTAVYYCNARTEDYDGANNYWGHGTQVTVSS | low polyreactivity
35 | QVQLVESGARLVQAGGSLRLRCAPSGSIFDGYAMGWYRQAPGKEREFVAAISKGGTRTYYADSVKGRFTISRDNAKNTVYLQMNSLIPEDSAVFYCNAYYRREPDDGDYDYWGQGTQVTVSS | high polyreactivity
36 | QVQLVESGGGLVQAGGSILLICSASGGNFYVYSMGWYRQAPGKERELVAAIRYSGGSTCYADSVKGRFTISRDNAKNTVYLLMNSLKTEYTAVYYCATVGWPFYPARDYDYSGQGTQVTVSS | low polyreactivity
37 | QVQLVESGGGLVQAGGSLRLSCAASGSTFYRNAMGWYRQAPGKERELVAAISGSGARTYYADSVKGRFTISRDNAKNTVYLQMNSLKPEDTAVYYCNAKRYFRNHFRTGGMYYWGQGTQVTVSS | high polyreactivity
38 | QVQLVESGGGLVQAGGSLRLSCAASGNIFSFYTMGWYRQAPGKERELVAAISWSGTSTYYADSVKGRFTISRDNAKNTVYLQMNSLKPEDTAVYYCAAERWWSGYEYWGQGTQVTVSS | high polyreactivity
39 | QVQLVESGGGLVQAGGSLRLSCAASGNTFYINAMGWYRQAPGKERELVAAINYSGESTYADSVKGRFTISRDNAKNTVYFQMNSLKPEDTAVYYCAADWYFSVYIDYDTEYDYWGQGTQVTVSS | low polyreactivity
40 | QVQLVESGGGLVQAGGSLRLSCAASGIIFDSYVMGWYRQAPGKERELVAAISFRGGSTYYADSVKGRFTISRDNAKNTVYLQMNSLKPEDTAVYYCAAEGRGYTEYYWGQGTQVTVSS | high polyreactivity
41 | QLQLVESGGGLVKAGGSLRLSCADSGLIFRNNCMGGYRHAPRKERELVAAISNRGGSTYYADSVKGRFTISRDNAKNTVYLQMNSLKPEDTAVYDCNAVASYSQGGYRYDYWGQGTQVTVSS | high polyreactivity
42 | QVQLVESGGGLVQAGGSLRLSCAASGSTLVYYDMGWYRQAPGKEREFVAAITISGGRTYYADSVKGRFTISRDNAKNTVYLQMNSLKPEDTAVYYCAADTDRRSPFDYWGQGTQVTVSS | high polyreactivity
43 | QVQLVESGGGLVQAGGSLRLSCAASGNIFSAYAMGWYRQAPGKEREFVAAISYSGGNTYYADSVKGRFTISRDNAKNTVYLLMNSLKPEVSAVYYCAARVLNKYYRYGYWGQGTQVTVSS | high polyreactivity

From the nanobody polyreactivity screen of Harvey et al. (2022)
